Test results reported in article PMC4918322.

Molecular target: PLK1 (UniProt P53350)
Test: anti-V5 co-immunoprecipitation, PLK1 blot
Conditions: reference: wild-type RSF1-C1; sites S1375

RSF1 C1, 627-1441 (from UniProt Q96T23) S1375A
binding against the reference: lost
